Measurements from article PMC10853767.

Target: NLS-GS-HIStag-GS-dCas12e-ABI (ABI domain fused directly to dCas12e)

With “HA-PYL1-linker-VP64-NLS (PYL1 fused to VP64) (domain or fragment)” the yEGFP activation efficiency of the ABA-sensing YES gate with ABI fused directly to dCas12e and an unchanged sgRNA, circuit 3x; the pair is bridged by the small molecule ABA was 2.79 fold.
